We go through one molecule from article PMC6080896 (The Journal of General Physiology, 2018).

This test addresses cerulean-tagged CaM (Cer-CaMWT) (UniProt P0DP23 1-149). The test can be described thus: FRET or BRET. (BRET reads energy transfer from a luciferase to a nearby fluorophore.)

B1: Venus-tagged CaV1.1 CI (Ven-CaV1.1 CI) (domain or fragment)
chain: not shown
Consider B1, for which the Kd is approximately 2300 nM.

For orientation: Kd means the free concentration of one partner at which half of the binding sites on the other are occupied at equilibrium, for simple one-to-one binding.
